Results published in US20250197448A1, “CYCLOPEPTIBODIES AND USES THEREOF” (University of Rochester, priority 2022, published 2025).
“Also recorded” adds a separate entry of the source. Starred links: 1 amine or outer side, 2 acyl side, 3 side chain; linkers in the order of their positions; H or OH if unused. Positions of bridges follow the written chain, without caps; N, C: chain ends. Non-standard residues stand in square brackets, D forms with d. No end group written: not given here. pCaaF = p-(2-chloroacetamido)-phenylalanine, O=C(CCl)Nc1ccc(C[C@H](N[*:1])C(=O)[*:2])cc1

What was measured:
PD-L1 = molecular target: T1, PD-L1 (Homo sapiens, UniProt Q9NZQ7); assay: in vitro PD-L1 binding assay (plate-immobilized PD-L1); settings: Q6 vs. Q12 spacer
T1 construct: poly-histidine (C); made in house
T1 sequence (Q9NZQ7 19-290): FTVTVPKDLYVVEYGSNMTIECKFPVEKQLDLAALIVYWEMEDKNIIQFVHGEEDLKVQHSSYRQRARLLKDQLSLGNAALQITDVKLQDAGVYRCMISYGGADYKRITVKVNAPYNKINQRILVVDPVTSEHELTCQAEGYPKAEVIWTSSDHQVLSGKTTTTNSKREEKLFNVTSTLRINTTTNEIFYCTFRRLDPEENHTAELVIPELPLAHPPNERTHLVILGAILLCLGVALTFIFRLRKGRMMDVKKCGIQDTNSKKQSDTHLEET
Experimental: (§1) Streptavidin Binding Assay. For the streptavidin binding assays, streptavidin-coated plates (Sigma-Aldrich) were used. For the Keap1, Shh and PD-L1 binding assay, target protein was immobilized on microtiter plates by incubating 100 μL of a 4 μM protein solution in PBS buffer overnight at 4° C., followed by decanting the protein solution and blocking with 0.5% bovine serum albumin in PBS for 2 h at room temperature. After washing (3×150 μL of PBS with 0.05% Tween-20), each well was incubated with 100 μL of purified FLAG-tagged cyclopeptibody at varying concentrations for 1 hour at room temperature. After washing three times with wash buffer, each well was incubated with 100 μL of 1:2500 dilution of HRP-conjugate mouse anti-FLAG polyclonal antibody (Sigma-Aldrich) for 1 hour at room temperature. After washing three times with wash buffer, 100 μL of 2.2 mM o-phenylenediamine dihydrochloride, 4.2 mM urea hydrogen peroxide, 100 mM dibasic sodium phosphate, and 50 mM sodium citrate, pH 5.0, were added to each well, followed by measurement of the absorbance at 450 nm after 10-20 min using a Tecan Infinite 1000 plate reader. Equilibrium dissociation constants (Kp) were determined by fitting the dose-response curves to a 1:1 binding isotherm equation via nonlinear regression. using SigmaPlot. Mean values and standard deviations were calculated from experiments performed in triplicate. […]

[1] = molecular target: T2, PD-L1 receptor on MDA-MB-231 cells (Homo sapiens, UniProt Q9NZQ7); assay: flow cytometry of MDA-MB-231 cells, PD-L1 labeling with FITC anti-human IgG Fc; type: cell-based; settings: for staining / labeling of PD-L1 receptors on MDA-MB-231 cells (in words): concentration not given at the place
T2 construct: known to express high levels of PD-L1 on their surface; endogenous in cells; host or cells: MDA-MB-231
T2 sequence (Q9NZQ7 19-290): as above
Experimental: The cells were then incubated with fluorescein-conjugated anti-human IgG Fc antibody and analyzed by flow cytometry. The same experiment was carried out in parallel using commercially available anti-PD-L1 antibody as positive control and various negative controls.
Flow Cytometry Analysis. […] When confluent, media was aspirated, cells were washed once with 1×DPBS (no calcium, no magnesium) (Gibco). Adherent cells were detached from the petri dish with 1 mL of accutase (Gibco) pre-warmed to 37° C., followed by incubated for 5 min at 37° C. Cells were spun down using centrifugation. Supernatant was removed and cells were washed three times with staining buffer (1×PBS with 0.5% BSA). Cells were resuspended in Eppendorf tubes in 100 μL PBS at a concentration of 107cells per mL. […] Eppendorf tubes were then placed on the platform shaker for gently shaking for 1 hour at room temperature. After 1 hour, cells were spun down using centrifugation, then supernatant was removed. […] Cells were washed as described above, then resuspended in 400 μL staining buffer. […] The cells of interest were gated using Forward and Side scatter (FSC/SSC). 10,000 singlet events were collected for each specimen.

[2] = molecular target: T3, PD-L1 expressed on the surface of MDA-MB-231 cells (Homo sapiens, UniProt Q9NZQ7); assay: confocal microscopy imaging of MDA-MB-231 cells; type: cell-based; settings: anti-Fc-FITC staining
T3 construct: known to express high levels of PD-L1 on their surface; endogenous in cells; host or cells: MDA-MB-231
T3 sequence (Q9NZQ7 19-290): as above
Experimental: Cyclopeptibodies can be applied for detection and imaging of a target protein in cells and other biological systems. To illustrate this aspect of the invention, breast cancer cells MDA-MB-231 cells were treated with PD-L1 targeting cRK10 (pCaaF)-Tras-Fc. MDA-MB-231 cells are known to express high levels of PD-L1 on the cell membrane. After treatment with cRK10 (pCaaF)-Tras-Fc, the cyclopeptibody bound to the surface PD-L1 was labeled with fluorescein-conjugated anti-human Fc antibody (‘anti-Fc-FITC’) and cells were imaged using confocal microscopy.

streptavidin = molecular target: T4, streptavidin (Streptomyces avidinii, UniProt P22629); assay: in vitro streptavidin binding assay (streptavidin-coated plates, anti-FLAG HRP detection)
T4 construct: purchased Sigma-Aldrich
T4 sequence (P22629 25-183): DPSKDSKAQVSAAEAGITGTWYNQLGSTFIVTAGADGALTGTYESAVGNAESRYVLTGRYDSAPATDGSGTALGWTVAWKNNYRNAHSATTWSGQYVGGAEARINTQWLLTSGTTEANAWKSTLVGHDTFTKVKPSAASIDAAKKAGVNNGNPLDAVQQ
Source text: To prepare a cyclopeptibody capable of binding the protein streptavidin, a cyclic streptavidin-binding peptide previously discovered via phage display (Owens et al, ACS Cent Sci. (2020); 6(3):368-381) was genetically fused to the Fc domain of human IgG1 via a spacer (Entry 1, Table 1). The resulting cyclopeptibody (called Strep-m3-Tras-Fc) was expressed, purified, and characterized as described in Example 4. This construct was confirmed to contain the cyclic peptide constrained via O2beY/Cys thioether (i/i-8) linkage, where ‘i’ indicates the position of the non-canonical amino acid O2beY (also refereed to herein as p-2beF). […]
Streptavidin Binding Assay. […] After washing three times with wash buffer, 100 μL of 2.2 mM o-phenylenediamine dihydrochloride, 4.2 mM urea hydrogen peroxide, 100 mM dibasic sodium phosphate, and 50 mM sodium citrate, pH 5.0, were added to each well, followed by measurement of the absorbance at 450 nm after 10-20 min using a Tecan Infinite 1000 plate reader. Equilibrium dissociation constants (Kp) were determined by fitting the dose-response curves to a 1:1 binding isotherm equation via nonlinear regression. using SigmaPlot. Mean values and standard deviations were calculated from experiments performed in triplicate.

Sonic Hedgehog (Shh) = Sonic Hedgehog (Shh) (Homo sapiens, UniProt Q15465); assay: in vitro Shh binding assay (plate-immobilized Shh)
Experimental: as §1

PD-1/PD-L1 interaction = molecular target: T5, PD-1/PD-L1 interaction (Homo sapiens, UniProt Q9NZQ7); assay: PD-L1 competition assay with biotinylated PD-1; type: binding
T5 construct: poly-histidine (C); made in house; PD-1 co-expressed with BirA
T5 sequence (Q9NZQ7 19-238 limits assumed): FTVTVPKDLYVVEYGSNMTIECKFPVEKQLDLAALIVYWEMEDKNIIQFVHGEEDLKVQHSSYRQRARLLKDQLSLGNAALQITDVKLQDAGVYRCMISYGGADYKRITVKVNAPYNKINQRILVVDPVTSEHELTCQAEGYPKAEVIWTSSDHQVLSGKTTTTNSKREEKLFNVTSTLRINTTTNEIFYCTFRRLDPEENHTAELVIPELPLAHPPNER
Experimental: Next, we examined the ability of the cyclopeptibody cCLP003-Tras-Fc to inhibit the PD-1/PD-L1 interaction using a competition assay with recombinant biotinylated PD-1 (Bio-PD-1). Briefly, PD-L1 immobilized on a plate was incubated with Bio-PD-1 and varying concentrations of cCLP003-Tras-Fc or control Fc. The PD-L1-bound PD-1 was then quantified colorimetrically (OD450) using horseradish peroxidase (HRP)-conjugated streptavidin.
PD-L1 Competition Assay. PD-L1 was immobilized on microtiter plates as described above. followed by decanting the protein solution and blocking with 0.5% bovine serum albumin in PBS for 2 h at room temperature. After washing, each well was incubated with 100 μL of serial dilutions of cCLP003-Tras-Fc-His for 1 hour at room temperature. Biotinylated PD-1 (500 nM) was added and incubated for 1 h at room temperature. After washing, the bound PD-1 was quantified by means of HRP-conjugate Streptavidin and colorimetric assay as described above. The inhibitory constant (IC50) was determined by fitting the dose-response curves to a 4-parameter equation via nonlinear regression using SigmaPlot. Mean values and standard deviations were calculated from experiments performed in triplicate.

[3] = molecular target: T6, integrin αvβ3 on MDA-MB-231 cells (Homo sapiens, UniProt P05106+P06756); assay: flow cytometry of MDA-MB-231 cells, integrin receptor labeling; type: cell-based; settings: FITC anti-IgG1 Fc detection
T6 construct: known to express high levels of integrin αvβ3 on their surface; endogenous in cells; host or cells: MDA-MB-231
T6 sequence (P06756 31-889 limits assumed): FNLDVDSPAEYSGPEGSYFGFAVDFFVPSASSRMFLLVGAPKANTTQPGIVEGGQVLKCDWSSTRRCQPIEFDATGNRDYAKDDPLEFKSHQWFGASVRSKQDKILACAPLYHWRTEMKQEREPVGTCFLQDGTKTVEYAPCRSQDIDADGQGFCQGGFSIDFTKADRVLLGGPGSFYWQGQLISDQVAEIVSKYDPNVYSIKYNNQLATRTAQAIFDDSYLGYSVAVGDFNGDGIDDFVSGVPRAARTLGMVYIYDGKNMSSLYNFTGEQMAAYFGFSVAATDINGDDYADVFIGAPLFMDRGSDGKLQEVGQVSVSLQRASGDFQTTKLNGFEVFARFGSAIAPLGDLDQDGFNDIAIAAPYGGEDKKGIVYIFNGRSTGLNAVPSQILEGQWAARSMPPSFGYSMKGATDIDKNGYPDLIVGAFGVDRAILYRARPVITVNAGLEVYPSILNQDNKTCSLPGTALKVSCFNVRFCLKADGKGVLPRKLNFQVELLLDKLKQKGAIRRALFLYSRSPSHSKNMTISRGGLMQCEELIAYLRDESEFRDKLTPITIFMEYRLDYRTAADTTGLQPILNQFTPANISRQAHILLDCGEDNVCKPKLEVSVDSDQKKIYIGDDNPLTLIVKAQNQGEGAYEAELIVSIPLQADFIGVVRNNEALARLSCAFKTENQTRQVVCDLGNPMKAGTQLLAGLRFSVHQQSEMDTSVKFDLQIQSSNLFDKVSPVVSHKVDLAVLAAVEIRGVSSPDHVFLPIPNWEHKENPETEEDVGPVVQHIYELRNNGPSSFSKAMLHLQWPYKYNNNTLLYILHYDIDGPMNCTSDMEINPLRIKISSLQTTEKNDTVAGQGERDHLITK
T6 sequence (P06756 891-1048 partner limits assumed): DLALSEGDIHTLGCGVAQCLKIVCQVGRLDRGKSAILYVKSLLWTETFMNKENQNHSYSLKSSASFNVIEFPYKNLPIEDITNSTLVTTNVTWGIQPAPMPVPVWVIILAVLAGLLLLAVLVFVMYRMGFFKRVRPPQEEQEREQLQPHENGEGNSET
T6 sequence (P05106 27-788): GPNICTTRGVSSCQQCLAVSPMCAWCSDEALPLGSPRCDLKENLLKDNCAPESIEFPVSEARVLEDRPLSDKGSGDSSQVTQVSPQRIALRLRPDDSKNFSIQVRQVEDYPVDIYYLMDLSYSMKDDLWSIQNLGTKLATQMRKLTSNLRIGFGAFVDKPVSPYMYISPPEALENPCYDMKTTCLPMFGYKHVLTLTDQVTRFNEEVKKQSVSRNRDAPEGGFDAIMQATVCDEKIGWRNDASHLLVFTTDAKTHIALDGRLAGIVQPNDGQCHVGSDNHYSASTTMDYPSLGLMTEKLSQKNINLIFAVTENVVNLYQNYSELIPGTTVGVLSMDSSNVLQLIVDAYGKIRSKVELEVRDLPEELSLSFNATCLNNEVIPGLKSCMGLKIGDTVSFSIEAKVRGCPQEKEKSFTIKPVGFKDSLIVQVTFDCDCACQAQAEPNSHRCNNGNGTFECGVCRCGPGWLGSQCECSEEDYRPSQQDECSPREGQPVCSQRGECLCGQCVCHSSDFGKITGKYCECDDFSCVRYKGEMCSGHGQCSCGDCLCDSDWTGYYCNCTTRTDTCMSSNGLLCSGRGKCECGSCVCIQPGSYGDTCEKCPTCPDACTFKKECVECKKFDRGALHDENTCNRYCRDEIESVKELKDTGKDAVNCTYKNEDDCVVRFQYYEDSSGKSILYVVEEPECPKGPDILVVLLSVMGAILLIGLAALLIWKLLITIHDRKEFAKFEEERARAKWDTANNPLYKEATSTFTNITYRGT
Experimental: Flow Cytometry Analysis. Cell line MDA-MB-231 was grown in culture to reach confluency. When confluent, media was aspirated, cells were washed once with 1×DPBS (no calcium, no magnesium) (Gibco). Adherent cells were detached from the petri dish with 1 mL of accutase (Gibco) pre-warmed to 37° C., followed by incubated for 5 min at 37° C. Cells were spun down using centrifugation. Supernatant was removed and cells were washed three times with staining buffer (1×PBS with 0.5% BSA). Cells were resuspended in Eppendorf tubes in 100 μL PBS at a concentration of […]. Cyclopeptibodies or Human anti-PD-L1 antibody (1 μg) (R&D Systems, MAB10355) in staining buffer were then added to the tubes with a concentration of 1.5 μM in 200 μL. Eppendorf tubes were then placed on the platform shaker for gently shaking for 1 hour at room temperature. After 1 hour, cells were spun down using centrifugation, then supernatant was removed. After washing three times, cells were resuspended in 200 μL of Fluorescein (FITC) AffiniPure Goat Anti-Human IgG with working concentration of 30 μg/mL (Jackson ImmunoResearch, 109-095-098), incubated in the dark for 30 min at room temperature. Cells were washed as described above, then resuspended in 400 μL staining buffer. Then cells were analyzed on a BD FACS Accuri C6^+ using a filter of 533/30. The cells of interest were gated using Forward and Side scatter (FSC/SSC). 10,000 singlet events were collected for each specimen.
After purification as described in Example 2, these cyclopeptibodies were used to treat breast cancer cells (MDA-MB-231), which are known to express high levels of integrin αvβ3 on their surface. The cyclopeptibody treated cells were then analyzed by flow cytometry using a procedure similar to that described for the PD-L1-targeting cyclopeptibodies in Example 9.

Substance	higher PD-L1 binding affinity compared to FLAG-cRK10-Q12-Tras-Fc-His (PD-L1)	median fluorescence intensity (MFI) relative to positive control ([1]; MDA-MB-231 cells, 0.09 mg/mL)	staining / labeling of PD-L1 receptors on MDA-MB-231 cells (in words) [1]	recognition of surface PD-L1 by fluorescent imaging [2]	streptavidin binding (in words) (streptavidin)	Shh binding (in words) (Sonic Hedgehog (Shh))	inhibition of PD-1/PD-L1 interaction (in words) (PD-1/PD-L1 interaction)	staining / labeling of PD-L1 receptors on MDA-MB-231 cells (in words) ([1]; listed as human IgG1 Fc domain)	labeling of integrin receptors on MDA-MB-231 cells (in words) [3]
FLAG-(GS)2-TYLCGAISLAZKAQIKESL-(Q)6-(Fc)^1-H6 (DYKDDDDKGSGSTYLCGAISLA[pCaaF]KAQIKESLQQQQQQ-{Fc-H6}; thioether 16-23) [cRK10-Tras-Fc]	six-fold higher	comparable median fluorescence intensity (MFI) to that of the positive control anti-PD-L1 antibody	selective labeling of PD-L1 receptors	able to efficiently recognize PD-L1					
Fc domain: human IgG1 Fc domain alone, negative control [reference compound]			negligible non-specific interaction		no binding	no significant binding below 500 nM	did not exhibit significant inhibitory activity	negligible staining	minimal or significantly reduced staining; also recorded: negligible non-specific interaction
